# Data: IntAct's records for PubMed 22317921
# B1: Zinc transporter SLC39A7 (Homo sapiens), Q92504 (parent)
# chain: MARGLGAPHWVAVGLLTWATLGLLVAGLGGHDDLHDDLQEDFHGHSHRHSHEDFHHGHSHAHGHGHTHESIWHGHTHDHDHGHSHEDLHHGHSHGYSHESLYHRGHGHDHEHSHGGYGESGAPGIKQDLDAVTLWAYALGATVLISAAPFFVLFLIPVESNSPRHRSLLQILLSFASGGLLGDAFLHLIPHALEPHSHHTLEQPGHGHSHSGQGPILSVGLWVLSGIVAFLVVEKFVRHVKGGHGHSHGHGHAHSHTRGSHGHGRQERSTKEKQSSEEEEKETRGVQKRRGGSTVPKDGPVRPQNAEEEKRGLDLRVSGYLNLAADLAHNFTDGLAIGASFRGGRGLGILTTMTVLLHEVPHEVGDFAILVQSGCSKKQAMRLQLLTAVGALAGTACALLTEGGAVGSEIAGGAGPGWVLPFTAGGFIYVATVSVLPELLREASPLQSLLEVLGLLGGVIMMVLIAHLE
# Variants of: B1
# Conditions: with csk21_human CSNK2A1, P68400
# Chain of csk21_human CSNK2A1, P68400 (P68400 whole entry, looked up): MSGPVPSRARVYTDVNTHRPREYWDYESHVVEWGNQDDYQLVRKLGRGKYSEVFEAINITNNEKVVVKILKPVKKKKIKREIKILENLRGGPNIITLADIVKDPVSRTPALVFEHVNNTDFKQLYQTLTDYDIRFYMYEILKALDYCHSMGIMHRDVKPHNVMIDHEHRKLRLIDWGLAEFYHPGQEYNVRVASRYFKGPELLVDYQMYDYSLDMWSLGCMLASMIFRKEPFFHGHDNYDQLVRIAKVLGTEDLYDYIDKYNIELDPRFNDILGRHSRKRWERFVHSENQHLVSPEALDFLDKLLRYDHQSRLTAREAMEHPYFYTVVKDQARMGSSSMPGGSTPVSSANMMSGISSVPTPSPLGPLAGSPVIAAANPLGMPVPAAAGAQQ
row,effect of a mutation on the interaction,Variant
1,decreasing interaction,S275A;S276A
